Test results as given in patent US20170368136A1.

How the values were obtained:
CaMKII = experiment: cell-based or functional assay
CaMKIV = experiment: cell-based or functional assay

Sequence of CaMKII (chain, from a related filing, as listed by the source): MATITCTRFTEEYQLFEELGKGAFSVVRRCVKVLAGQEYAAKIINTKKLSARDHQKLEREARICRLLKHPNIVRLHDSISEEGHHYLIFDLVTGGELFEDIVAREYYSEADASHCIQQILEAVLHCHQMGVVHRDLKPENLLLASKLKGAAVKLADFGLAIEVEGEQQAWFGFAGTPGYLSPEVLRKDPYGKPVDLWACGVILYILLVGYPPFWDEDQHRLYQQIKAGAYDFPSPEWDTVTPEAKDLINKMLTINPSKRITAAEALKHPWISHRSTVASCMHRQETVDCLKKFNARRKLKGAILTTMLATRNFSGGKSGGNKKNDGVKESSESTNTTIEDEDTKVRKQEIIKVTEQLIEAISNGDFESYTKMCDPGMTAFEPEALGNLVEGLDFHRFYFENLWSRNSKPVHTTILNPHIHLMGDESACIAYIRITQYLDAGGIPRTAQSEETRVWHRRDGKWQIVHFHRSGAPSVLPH

Row | Binder | IC50, phosphorylation of syntide 2 by CaMKII (CaMKII) | reduction of kinase activity in a kinase panel, 5 µM tatCN21 (CaMKIV)
1 | KRPPKLGQIGRSKRVVIEDDR [CN21a] | 100 nM | –
2 | YGRKKRRQRRRKRPPKLGQIGRSKRVVIEDDR (modifications not checked) [tatCN21] | – | 35%
